Article PMC8008340 (Cell, 2021)

Target: T1, WT RBD (Wuhan SARS-CoV-2 RBD) (Severe acute respiratory syndrome …, UniProt P0DTC2)
T1 construct: also called Wuhan RBD; native RBD
Experiment: crystal structure
Details: both partners purified

B1: EY6A Fab (Fab, V domains shown)
VH: EVQLVESGGGVVQPGRSLRLSCAASAFTFSSYDMHWVRQAPGKGLEWVAVISYDGSNKYYADSVKGRFTISRDNSKNTLYLQMNSLRAEDTAVYYCAKDGGKLWVYYFDYWGQGTLVTVSS
VL: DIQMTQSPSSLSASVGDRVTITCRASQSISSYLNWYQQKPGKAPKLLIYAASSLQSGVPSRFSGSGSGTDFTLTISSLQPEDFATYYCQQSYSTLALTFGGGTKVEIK
binding result: binds
